Tests used:
[1] = target: hypercleavable mutant form of TgAMA1 (AMA1^L/G) on Toxoplasma gondii tachyzoites (Toxoplasma gondii) (UniProt B6KAM0)
[2] = target: FLAG-tagged wild-type TgAMA1 on Toxoplasma gondii tachyzoites (Toxoplasma gondii) (UniProt B6KAM0)

## D3 domain of TgRON2 fused to glutathione S-transferase (GST-D3) (domain or fragment)
[1]
  constitutive cleavage and shedding of AMA1^L/G, microneme secretion assay, saturating (1 µM) GST-D3 against GST; percent inhibition: 50%
[2]
  amount of FLAG-tagged TgAMA1 ectodomain shed into the supernatant, constitutive microneme secretion assay, against GST-treated controls; dose dependent from 0.01 to 1 µM GST-D3, fold decrease at 5 µM: 5.7 fold
